Tests used:
c-Src SH2 = experiment: SH2 binding enrichment of the phosphorylated peptide, bacterial display (enrichment ratio); higher = better substrate or ligand; peptides without Tyr show the background
SHP2-C SH2 = experiment: as above
Grb2 SH2 = Grb2 SH2 (UniProt P62993); experiment: as above
Jak2 = Jak2 (UniProt O60674); experiment: phosphorylation enrichment, bacterial display (enrichment ratio); higher = better substrate or ligand; peptides without Tyr show the background
Fes = Fes (UniProt P07332); experiment: as above
EPHB2 = EPHB2 (UniProt P29323); experiment: as above
FGFR1 = FGFR1 (UniProt P11362); experiment: as above
AncSZ = experiment: as above
MERTK = MERTK (UniProt Q12866); experiment: as above
MERTK, sequence (Q12866 whole entry, looked up): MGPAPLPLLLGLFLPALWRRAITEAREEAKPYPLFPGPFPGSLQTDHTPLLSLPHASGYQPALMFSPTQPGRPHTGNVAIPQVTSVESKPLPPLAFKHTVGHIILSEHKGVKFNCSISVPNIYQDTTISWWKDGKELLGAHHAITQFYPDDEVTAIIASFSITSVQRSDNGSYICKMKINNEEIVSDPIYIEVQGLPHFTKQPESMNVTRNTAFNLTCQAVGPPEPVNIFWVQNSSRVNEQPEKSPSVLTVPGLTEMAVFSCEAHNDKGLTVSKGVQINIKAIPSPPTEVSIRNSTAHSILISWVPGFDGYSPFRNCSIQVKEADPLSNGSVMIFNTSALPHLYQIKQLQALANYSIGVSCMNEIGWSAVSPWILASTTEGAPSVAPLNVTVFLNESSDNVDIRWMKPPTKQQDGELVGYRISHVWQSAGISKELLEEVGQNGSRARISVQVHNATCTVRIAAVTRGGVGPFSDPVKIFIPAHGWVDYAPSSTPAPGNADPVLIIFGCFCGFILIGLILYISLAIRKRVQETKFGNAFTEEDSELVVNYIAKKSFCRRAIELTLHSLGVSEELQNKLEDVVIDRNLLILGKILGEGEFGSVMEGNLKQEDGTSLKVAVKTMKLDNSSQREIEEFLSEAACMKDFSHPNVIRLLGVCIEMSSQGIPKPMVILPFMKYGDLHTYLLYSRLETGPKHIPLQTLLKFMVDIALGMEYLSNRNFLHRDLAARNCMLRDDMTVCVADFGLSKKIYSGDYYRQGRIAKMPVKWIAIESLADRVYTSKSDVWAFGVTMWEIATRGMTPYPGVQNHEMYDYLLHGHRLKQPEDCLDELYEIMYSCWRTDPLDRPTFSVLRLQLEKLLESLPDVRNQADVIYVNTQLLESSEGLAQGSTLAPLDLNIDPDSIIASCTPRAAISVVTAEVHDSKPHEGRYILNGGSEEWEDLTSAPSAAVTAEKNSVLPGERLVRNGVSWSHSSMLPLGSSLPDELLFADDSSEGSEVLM

Hck = Hck (UniProt P08631); experiment: as above
Hck, sequence (P08631 whole entry, looked up): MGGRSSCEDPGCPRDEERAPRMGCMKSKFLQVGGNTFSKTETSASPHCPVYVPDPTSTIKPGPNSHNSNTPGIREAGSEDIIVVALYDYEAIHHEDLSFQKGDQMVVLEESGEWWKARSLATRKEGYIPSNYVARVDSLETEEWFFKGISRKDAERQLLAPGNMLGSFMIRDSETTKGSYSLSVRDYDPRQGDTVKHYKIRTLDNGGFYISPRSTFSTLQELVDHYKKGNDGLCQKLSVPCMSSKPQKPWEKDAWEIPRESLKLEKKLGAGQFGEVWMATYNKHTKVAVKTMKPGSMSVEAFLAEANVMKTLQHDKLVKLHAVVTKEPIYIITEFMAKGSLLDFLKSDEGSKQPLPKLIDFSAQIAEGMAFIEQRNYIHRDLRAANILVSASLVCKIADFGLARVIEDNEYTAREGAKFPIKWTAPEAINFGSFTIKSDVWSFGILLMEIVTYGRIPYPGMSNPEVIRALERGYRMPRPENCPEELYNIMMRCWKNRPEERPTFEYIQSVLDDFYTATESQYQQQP

EPHB1 = EPHB1 (UniProt P54762); experiment: as above
EPHB1, sequence (P54762 whole entry, looked up): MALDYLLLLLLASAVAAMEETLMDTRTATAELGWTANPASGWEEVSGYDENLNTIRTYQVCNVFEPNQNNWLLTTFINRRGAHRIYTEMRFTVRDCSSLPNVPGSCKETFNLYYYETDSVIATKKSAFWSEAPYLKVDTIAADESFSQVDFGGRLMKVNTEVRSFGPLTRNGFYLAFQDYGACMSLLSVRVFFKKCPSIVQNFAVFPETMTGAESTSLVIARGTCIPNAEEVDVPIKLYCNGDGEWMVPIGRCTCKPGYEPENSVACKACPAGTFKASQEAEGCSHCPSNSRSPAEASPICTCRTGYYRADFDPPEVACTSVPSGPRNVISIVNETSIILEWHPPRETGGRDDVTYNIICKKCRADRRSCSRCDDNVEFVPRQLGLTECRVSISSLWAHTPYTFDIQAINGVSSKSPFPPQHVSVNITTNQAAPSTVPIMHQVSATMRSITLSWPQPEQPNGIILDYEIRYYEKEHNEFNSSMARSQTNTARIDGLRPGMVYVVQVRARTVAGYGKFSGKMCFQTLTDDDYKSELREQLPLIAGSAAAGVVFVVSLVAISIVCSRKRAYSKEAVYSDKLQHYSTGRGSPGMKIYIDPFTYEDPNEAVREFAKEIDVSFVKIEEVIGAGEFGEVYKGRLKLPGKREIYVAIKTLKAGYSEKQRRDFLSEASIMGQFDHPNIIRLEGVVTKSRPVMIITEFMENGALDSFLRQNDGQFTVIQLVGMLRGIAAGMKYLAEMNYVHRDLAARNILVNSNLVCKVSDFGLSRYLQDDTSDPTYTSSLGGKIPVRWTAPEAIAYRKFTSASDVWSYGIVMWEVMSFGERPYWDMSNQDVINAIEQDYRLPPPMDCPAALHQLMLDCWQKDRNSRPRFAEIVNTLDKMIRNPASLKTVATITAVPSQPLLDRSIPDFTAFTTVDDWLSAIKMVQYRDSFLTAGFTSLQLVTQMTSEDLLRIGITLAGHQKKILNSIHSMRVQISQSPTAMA

FGFR3 = FGFR3 (UniProt P22607); experiment: as above
FGFR3, sequence (P22607 whole entry, looked up): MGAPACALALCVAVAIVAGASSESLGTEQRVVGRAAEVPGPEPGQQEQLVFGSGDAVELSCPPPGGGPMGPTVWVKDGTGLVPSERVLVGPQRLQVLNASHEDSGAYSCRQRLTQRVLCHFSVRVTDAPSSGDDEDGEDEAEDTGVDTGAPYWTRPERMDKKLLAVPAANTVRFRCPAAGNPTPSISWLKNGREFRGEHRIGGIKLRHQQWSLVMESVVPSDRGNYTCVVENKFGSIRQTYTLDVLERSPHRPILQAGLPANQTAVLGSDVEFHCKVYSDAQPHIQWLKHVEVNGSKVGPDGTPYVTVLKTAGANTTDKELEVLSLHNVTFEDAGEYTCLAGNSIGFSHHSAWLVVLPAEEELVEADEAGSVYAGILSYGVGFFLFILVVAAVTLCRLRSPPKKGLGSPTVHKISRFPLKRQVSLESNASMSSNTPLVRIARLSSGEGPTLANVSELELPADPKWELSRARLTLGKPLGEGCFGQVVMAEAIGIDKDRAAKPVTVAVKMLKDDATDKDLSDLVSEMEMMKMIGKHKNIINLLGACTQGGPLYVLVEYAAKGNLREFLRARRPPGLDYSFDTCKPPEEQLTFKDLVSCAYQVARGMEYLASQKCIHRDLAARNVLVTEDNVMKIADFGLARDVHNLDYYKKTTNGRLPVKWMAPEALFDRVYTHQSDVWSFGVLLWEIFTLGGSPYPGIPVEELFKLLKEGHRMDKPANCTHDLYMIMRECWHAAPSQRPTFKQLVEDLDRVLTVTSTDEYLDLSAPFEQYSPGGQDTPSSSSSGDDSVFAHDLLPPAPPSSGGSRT

c-Abl (mouse) = experiment: as above
Fyn = Fyn (UniProt P06241); experiment: as above
Fyn, sequence (P06241 whole entry, looked up): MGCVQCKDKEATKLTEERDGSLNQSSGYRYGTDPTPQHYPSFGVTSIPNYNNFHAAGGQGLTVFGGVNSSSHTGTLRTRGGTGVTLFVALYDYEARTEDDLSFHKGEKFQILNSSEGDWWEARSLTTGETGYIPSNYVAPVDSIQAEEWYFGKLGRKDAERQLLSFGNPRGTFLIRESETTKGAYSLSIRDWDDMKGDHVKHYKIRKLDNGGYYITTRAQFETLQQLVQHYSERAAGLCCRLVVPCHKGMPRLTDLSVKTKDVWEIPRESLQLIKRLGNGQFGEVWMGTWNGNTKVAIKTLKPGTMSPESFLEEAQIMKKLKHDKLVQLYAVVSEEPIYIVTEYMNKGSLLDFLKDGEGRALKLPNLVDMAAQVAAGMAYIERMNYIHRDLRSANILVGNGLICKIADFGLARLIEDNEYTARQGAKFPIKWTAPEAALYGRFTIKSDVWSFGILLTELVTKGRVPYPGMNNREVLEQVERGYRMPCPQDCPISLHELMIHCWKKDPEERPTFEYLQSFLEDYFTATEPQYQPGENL

c-Src = experiment: as above
Fer (mouse) = experiment: as above
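Wherever SH2 binding enrichment of the phosphorylated peptide, bacterial display is given: peptide library displayed on the E. coli surface as eCPX fusions, selected cells deep-sequenced, score is each peptide's frequency after selection divided by its frequency in the input.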
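Wherever phosphorylation enrichment, bacterial display is given: 11-residue human phosphosite peptides and single-mutation variants displayed on the E. coli surface, counted by deep sequencing, each peptide's frequency after selection divided by its frequency in the unselected input library; frequency after pTyr selection over input frequency; kinase dosed for 20-30% of maximal phosphorylation in three min.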

Jak2, sequence (O60674 whole entry, looked up): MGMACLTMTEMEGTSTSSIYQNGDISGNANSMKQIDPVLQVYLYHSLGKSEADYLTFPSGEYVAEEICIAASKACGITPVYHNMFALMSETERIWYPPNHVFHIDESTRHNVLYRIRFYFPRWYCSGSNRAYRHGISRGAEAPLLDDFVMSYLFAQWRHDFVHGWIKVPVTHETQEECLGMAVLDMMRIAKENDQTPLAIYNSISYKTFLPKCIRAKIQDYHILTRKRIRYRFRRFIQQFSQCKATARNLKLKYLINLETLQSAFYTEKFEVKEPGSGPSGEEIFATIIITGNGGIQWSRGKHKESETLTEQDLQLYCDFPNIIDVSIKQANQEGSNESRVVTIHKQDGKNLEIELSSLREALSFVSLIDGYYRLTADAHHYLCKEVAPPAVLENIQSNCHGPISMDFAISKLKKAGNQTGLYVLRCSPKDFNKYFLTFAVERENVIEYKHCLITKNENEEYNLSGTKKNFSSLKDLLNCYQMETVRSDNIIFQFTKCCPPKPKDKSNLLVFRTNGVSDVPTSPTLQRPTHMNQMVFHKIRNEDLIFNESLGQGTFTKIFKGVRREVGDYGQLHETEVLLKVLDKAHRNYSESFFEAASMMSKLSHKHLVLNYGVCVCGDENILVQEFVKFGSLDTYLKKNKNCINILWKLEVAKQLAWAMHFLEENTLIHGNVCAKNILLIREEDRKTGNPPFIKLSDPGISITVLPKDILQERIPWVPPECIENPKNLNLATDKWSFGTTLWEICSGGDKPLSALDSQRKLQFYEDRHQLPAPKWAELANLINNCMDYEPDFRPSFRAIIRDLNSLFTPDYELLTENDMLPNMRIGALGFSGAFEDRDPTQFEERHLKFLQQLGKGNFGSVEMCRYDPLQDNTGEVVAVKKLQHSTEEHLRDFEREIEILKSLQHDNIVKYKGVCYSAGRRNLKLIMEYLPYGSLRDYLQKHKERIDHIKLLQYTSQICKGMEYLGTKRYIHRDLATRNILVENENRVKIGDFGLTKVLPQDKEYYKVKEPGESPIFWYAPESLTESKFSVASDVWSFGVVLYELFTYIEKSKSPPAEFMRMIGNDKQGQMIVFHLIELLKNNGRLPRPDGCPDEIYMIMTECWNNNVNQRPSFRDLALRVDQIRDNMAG

| Sequence | SH2 binding enrichment (c-Src SH2) | SH2 binding enrichment (SHP2-C SH2) | SH2 binding enrichment (Grb2 SH2) | phosphorylation enrichment (Jak2) | phosphorylation enrichment (Fes) | phosphorylation enrichment (EPHB2) | phosphorylation enrichment (FGFR1) | phosphorylation enrichment (AncSZ) | phosphorylation enrichment (MERTK) | phosphorylation enrichment (Hck) | phosphorylation enrichment (EPHB1) | phosphorylation enrichment (FGFR3) | phosphorylation enrichment (c-Abl (mouse)) | phosphorylation enrichment (Fyn) | phosphorylation enrichment (c-Src) | phosphorylation enrichment (Fer (mouse)) |
| --- | --- | --- | --- | --- | --- | --- | --- | --- | --- | --- | --- | --- | --- | --- | --- | --- |
| EYFDGYWEYSV [ITGA2B_Y265_G267E] | 0.465 | 0.758 | 0.876 | 5.73 | 1.72 | 3.58 | 13.8 | 4.06 | 2 | 4.33 | 2.02 | 12 | 1.54 | 5.41 | 6.02 | 1.22 |
| PCLLRYLQLDF [ASB10_Y457_R453C] | 1.26 | 1.26 | 1.12 | 1.51 | 1.72 | 0.538 | 1.18 | 1.5 | 0.733 | 0.783 | 0.833 | 1.14 | 1.12 | 0.497 | 0.502 | 0.968 |
| CSHKFYGKQCC [ADAMTS16_Y1211] | 0.765 | 1.01 | 1.04 | 0.513 | 0.673 | 0.477 | 0.391 | 0.607 | 0.396 | 0.415 | 0.498 | 0.499 | 0.505 | 0.346 | 0.268 | 0.448 |
| IWIFHYAKGQP [MPZ_Y82_S78W] | 0.795 | 1.55 | 1.18 | 1.28 | 1.55 | 0.498 | 0.348 | 1.26 | 0.446 | 0.411 | 0.578 | 0.768 | 1.09 | 0.49 | 0.577 | 0.459 |
| RRNVYYYSYLL [PTEN_Y177_Y174N] | 0.599 | 0.641 | 0.565 | 2.42 | 0.796 | 0.707 | 6.81 | 1.16 | 8.2 | 1.13 | 1.74 | 4.21 | 0.616 | 1.14 | 1.79 | 0.556 |
| CTHDLYMIMRE [FGFR3_Y724] | 0.573 | 0.708 | 0.811 | 1.44 | 1.46 | 1.03 | 0.634 | 1.31 | 1.18 | 0.971 | 2.05 | 0.837 | 0.848 | 0.564 | 2.22 | 0.667 |
| EMFNPCYGLFE [NEDD4L_Y679_Y679C] | 0.643 | 0.803 | 0.918 | 1.2 | 1.49 | 0.689 | 0.543 | 1.04 | 0.765 | 1.43 | 0.489 | 0.713 | 1.03 | 4.58 | 5.2 | 1.14 |
| LSERGYSFVTT [ACTA2_Y200_T196S] | 8.52 | 5.26 | 0.806 | 1.08 | 1.41 | 0.704 | 0.955 | 1.29 | 0.986 | 0.724 | 0.94 | 1.46 | 0.925 | 0.81 | 0.693 | 1.06 |
| NKEAIYSGFIR [SMCHD1_Y283_YF] | 0.392 | 0.636 | 0.713 | 0.711 | 1.01 | 7.14 | 0.59 | 0.78 | 12.7 | 13.1 | 5.18 | 0.557 | 33.6 | 14.5 | 9.78 | 5.17 |
| RKGIRYLTSGL [PIGA_Y82] | 0.399 | 0.709 | 1.05 | 0.657 | 0.668 | 0.437 | 0.47 | 0.698 | 0.57 | 0.645 | 0.533 | 0.688 | 0.438 | 0.434 | 0.648 | 0.368 |
| CTTIHYNYMCT [TP53_Y234_N239T] | 4.38 | 2.78 | 1.42 | 0.657 | 1 | 1.02 | 0.899 | 0.936 | 0.784 | 0.545 | 2.71 | 0.817 | 0.656 | 0.569 | 0.5 | 0.915 |
| DESEDCRDTVV [CNNM3_Y456_Y456C] | 0.672 | 0.887 | 0.97 | 1.03 | 1.11 | 0.597 | 0.589 | 1.22 | 0.518 | 0.587 | 0.788 | 0.723 | 0.777 | 0.528 | 0.474 | 0.515 |
| HKDNNYISMWF [PAPOLG_Y432_V433I] | 0.346 | 0.51 | 0.726 | 1.46 | 2.53 | 2.15 | 3.2 | 1.93 | 1.33 | 0.866 | 2.88 | 2.46 | 0.975 | 0.934 | 0.663 | 1.14 |
| CEDMEYLESKQ [BTK_Y511_A508D] | 0.454 | 0.622 | 0.805 | 1.22 | 1.35 | 0.783 | 0.476 | 1.3 | 0.497 | 0.643 | 0.652 | 0.734 | 0.828 | 0.494 | 0.53 | 0.652 |
| VLAAQYTTVGR [SGSH_Y240_D235V] | 5.28 | 2.77 | 0.953 | 0.426 | 0.598 | 0.307 | 0.352 | 0.551 | 0.421 | 0.543 | 0.503 | 0.48 | 0.514 | 0.367 | 0.445 | 0.394 |
| KGELRYMHSRV [ABCD1_Y281] | 1.27 | 1.33 | 1.38 | 0.618 | 0.746 | 0.348 | 0.428 | 0.568 | 0.378 | 0.377 | 0.396 | 0.44 | 0.517 | 0.303 | 0.48 | 0.375 |

Source: the supplement of paper PMC10065799, “High-throughput profiling of sequence recognition by tyrosine kinases and SH2 domains using bacterial peptide display” (eLife, 2023)
